Experimental data: patent US12679878B2, “CRF2 receptor agonists and their use in therapy” (SANOFI, priority 2020, dated 2026)
Starred links: 1 amine or outer side, 2 acyl side, 3 side chain; linkers in the order of their positions; H or OH if unused. Non-standard residues stand in square brackets, D forms with d. Groups on a side chain read outwards from the residue. No end group written: not given here. *: point of attachment. C18 diacid = O=C(O)CCCCCCCCCCCCCCCCC(=O)*; γGlu = O=C(O)[C@H](CCC(=O)[*:2])N[*:1]; Palmitoyl = CCCCCCCCCCCCCCCC(=O)*; AEEA = NCCOCCOCC(=O)O; Aib = CC(C)(N)C(=O)O

These binders were tested against human corticotropin-releasing factor 2α (CRF2 α receptor) (human), Q13324 (assay: cell-based or functional assay).
human corticotropin-releasing factor 2α (CRF2 α receptor) (human), Q13324, sequence (Q13324 20-411): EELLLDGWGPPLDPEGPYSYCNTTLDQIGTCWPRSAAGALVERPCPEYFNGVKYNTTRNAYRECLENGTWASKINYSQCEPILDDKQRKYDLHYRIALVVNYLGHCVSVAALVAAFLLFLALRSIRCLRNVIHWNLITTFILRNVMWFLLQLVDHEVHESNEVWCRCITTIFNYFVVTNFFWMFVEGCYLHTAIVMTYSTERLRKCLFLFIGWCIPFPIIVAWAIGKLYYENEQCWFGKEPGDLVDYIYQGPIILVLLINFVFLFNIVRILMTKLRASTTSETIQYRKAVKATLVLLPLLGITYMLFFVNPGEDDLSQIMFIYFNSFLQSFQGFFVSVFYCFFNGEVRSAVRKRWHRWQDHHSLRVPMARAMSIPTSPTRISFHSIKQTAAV

Row | Binder | EC50 [nM], 0% HSA [nM] | EC50 [nM], 0.1% HSA [nM]
1 | IVLSLDVPIKLK([AEEA-AEEA-γGlu-C18 diacid])QILLEQERQR[Aib]ERQQAETNVQILAQV-NH2 (N-terminus assumed; SMILES CC[C@H](C)[C@H](N)C(=O)N[C@H](C(=O)N[C@@H](CC(C)C)C(=O)N[C@@H](CO)C(=O)N[C@@H](CC(C)C)C(=O)N[C@@H](CC(=O)O)C(=O)N[C@H](C(=O)N1CCC[C@H]1C(=O)N[C@H](C(=O)N[C@@H](CCCCN)C(=O)N[C@@H](CC(C)C)C(=O)N[C@@H](CCCCNC(=O)COCCOCCNC(=O)COCCOCCNC(=O)CC[C@H](NC(=O)CCCCCCCCCCCCCCCCC(=O)O)C(=O)O)C(=O)N[C@@H](CCC(N)=O)C(=O)N[C@H](C(=O)N[C@@H](CC(C)C)C(=O)N[C@@H](CC(C)C)C(=O)N[C@@H](CCC(=O)O)C(=O)N[C@@H](CCC(N)=O)C(=O)N[C@@H](CCC(=O)O)C(=O)N[C@@H](CCCNC(=N)N)C(=O)N[C@@H](CCC(N)=O)C(=O)N[C@@H](CCCNC(=N)N)C(=O)NC(C)(C)C(=O)N[C@@H](CCC(=O)O)C(=O)N[C@@H](CCCNC(=N)N)C(=O)N[C@@H](CCC(N)=O)C(=O)N[C@@H](CCC(N)=O)C(=O)N[C@@H](C)C(=O)N[C@@H](CCC(=O)O)C(=O)N[C@H](C(=O)N[C@@H](CC(N)=O)C(=O)N[C@H](C(=O)N[C@@H](CCC(N)=O)C(=O)N[C@H](C(=O)N[C@@H](CC(C)C)C(=O)N[C@@H](C)C(=O)N[C@@H](CCC(N)=O)C(=O)N[C@H](C(N)=O)C(C)C)[C@@H](C)CC)C(C)C)[C@@H](C)O)[C@@H](C)CC)[C@@H](C)CC)C(C)C)C(C)C) [SEQ ID NO: 48] | 2.2 | 
2 | IVLSLDVPIKLK([AEEA-AEEA-γGlu-C18 diacid])QILLEQERQR[Aib]ERQQAETNVRILERV-NH2 (N-terminus assumed; SMILES CC[C@H](C)[C@H](N)C(=O)N[C@H](C(=O)N[C@@H](CC(C)C)C(=O)N[C@@H](CO)C(=O)N[C@@H](CC(C)C)C(=O)N[C@@H](CC(=O)O)C(=O)N[C@H](C(=O)N1CCC[C@H]1C(=O)N[C@H](C(=O)N[C@@H](CCCCN)C(=O)N[C@@H](CC(C)C)C(=O)N[C@@H](CCCCNC(=O)COCCOCCNC(=O)COCCOCCNC(=O)CC[C@H](NC(=O)CCCCCCCCCCCCCCCCC(=O)O)C(=O)O)C(=O)N[C@@H](CCC(N)=O)C(=O)N[C@H](C(=O)N[C@@H](CC(C)C)C(=O)N[C@@H](CC(C)C)C(=O)N[C@@H](CCC(=O)O)C(=O)N[C@@H](CCC(N)=O)C(=O)N[C@@H](CCC(=O)O)C(=O)N[C@@H](CCCNC(=N)N)C(=O)N[C@@H](CCC(N)=O)C(=O)N[C@@H](CCCNC(=N)N)C(=O)NC(C)(C)C(=O)N[C@@H](CCC(=O)O)C(=O)N[C@@H](CCCNC(=N)N)C(=O)N[C@@H](CCC(N)=O)C(=O)N[C@@H](CCC(N)=O)C(=O)N[C@@H](C)C(=O)N[C@@H](CCC(=O)O)C(=O)N[C@H](C(=O)N[C@@H](CC(N)=O)C(=O)N[C@H](C(=O)N[C@@H](CCCNC(=N)N)C(=O)N[C@H](C(=O)N[C@@H](CC(C)C)C(=O)N[C@@H](CCC(=O)O)C(=O)N[C@@H](CCCNC(=N)N)C(=O)N[C@H](C(N)=O)C(C)C)[C@@H](C)CC)C(C)C)[C@@H](C)O)[C@@H](C)CC)[C@@H](C)CC)C(C)C)C(C)C) [SEQ ID NO: 49] | 12.7 | 
3 | IVLSLDVPIKLK([AEEA-AEEA-γGlu-C18 diacid])QILLEQAKQK[Aib]LRAQAETNVRILERV-NH2 (N-terminus assumed; SMILES CC[C@H](C)[C@H](N)C(=O)N[C@H](C(=O)N[C@@H](CC(C)C)C(=O)N[C@@H](CO)C(=O)N[C@@H](CC(C)C)C(=O)N[C@@H](CC(=O)O)C(=O)N[C@H](C(=O)N1CCC[C@H]1C(=O)N[C@H](C(=O)N[C@@H](CCCCN)C(=O)N[C@@H](CC(C)C)C(=O)N[C@@H](CCCCNC(=O)COCCOCCNC(=O)COCCOCCNC(=O)CC[C@H](NC(=O)CCCCCCCCCCCCCCCCC(=O)O)C(=O)O)C(=O)N[C@@H](CCC(N)=O)C(=O)N[C@H](C(=O)N[C@@H](CC(C)C)C(=O)N[C@@H](CC(C)C)C(=O)N[C@@H](CCC(=O)O)C(=O)N[C@@H](CCC(N)=O)C(=O)N[C@@H](C)C(=O)N[C@@H](CCCCN)C(=O)N[C@@H](CCC(N)=O)C(=O)N[C@@H](CCCCN)C(=O)NC(C)(C)C(=O)N[C@@H](CC(C)C)C(=O)N[C@@H](CCCNC(=N)N)C(=O)N[C@@H](C)C(=O)N[C@@H](CCC(N)=O)C(=O)N[C@@H](C)C(=O)N[C@@H](CCC(=O)O)C(=O)N[C@H](C(=O)N[C@@H](CC(N)=O)C(=O)N[C@H](C(=O)N[C@@H](CCCNC(=N)N)C(=O)N[C@H](C(=O)N[C@@H](CC(C)C)C(=O)N[C@@H](CCC(=O)O)C(=O)N[C@@H](CCCNC(=N)N)C(=O)N[C@H](C(N)=O)C(C)C)[C@@H](C)CC)C(C)C)[C@@H](C)O)[C@@H](C)CC)[C@@H](C)CC)C(C)C)C(C)C) [SEQ ID NO: 46] | 0.52 | 
4 | IVLSLDVPIKLK([γGlu-Palmitoyl])KILLEQEKQEKEKQQAETNAQILAQV-NH2 (N-terminus assumed; SMILES CCCCCCCCCCCCCCCC(=O)N[C@@H](CCC(=O)NCCCC[C@H](NC(=O)[C@H](CC(C)C)NC(=O)[C@H](CCCCN)NC(=O)[C@@H](NC(=O)[C@@H]1CCCN1C(=O)[C@@H](NC(=O)[C@H](CC(=O)O)NC(=O)[C@H](CC(C)C)NC(=O)[C@H](CO)NC(=O)[C@H](CC(C)C)NC(=O)[C@@H](NC(=O)[C@@H](N)[C@@H](C)CC)C(C)C)C(C)C)[C@@H](C)CC)C(=O)N[C@@H](CCCCN)C(=O)N[C@H](C(=O)N[C@@H](CC(C)C)C(=O)N[C@@H](CC(C)C)C(=O)N[C@@H](CCC(=O)O)C(=O)N[C@@H](CCC(N)=O)C(=O)N[C@@H](CCC(=O)O)C(=O)N[C@@H](CCCCN)C(=O)N[C@@H](CCC(N)=O)C(=O)N[C@@H](CCC(=O)O)C(=O)N[C@@H](CCCCN)C(=O)N[C@@H](CCC(=O)O)C(=O)N[C@@H](CCCCN)C(=O)N[C@@H](CCC(N)=O)C(=O)N[C@@H](CCC(N)=O)C(=O)N[C@@H](C)C(=O)N[C@@H](CCC(=O)O)C(=O)N[C@H](C(=O)N[C@@H](CC(N)=O)C(=O)N[C@@H](C)C(=O)N[C@@H](CCC(N)=O)C(=O)N[C@H](C(=O)N[C@@H](CC(C)C)C(=O)N[C@@H](C)C(=O)N[C@@H](CCC(N)=O)C(=O)N[C@H](C(N)=O)C(C)C)[C@@H](C)CC)[C@@H](C)O)[C@@H](C)CC)C(=O)O) [SEQ ID NO: 2] | 0.01 | 0.01

The remaining lines, values ahead:

Row | EC50 [nM], 0% HSA [nM] | EC50 [nM], 0.1% HSA [nM] | Binder
5 | 3.77 |  | IVLSLDVPIKLK([AEEA-AEEA-γGlu-C18 diacid])QILLEQAKQK[Aib]LKAQAETNVRILERV-NH2 (N-terminus assumed; SMILES CC[C@H](C)[C@H](N)C(=O)N[C@H](C(=O)N[C@@H](CC(C)C)C(=O)N[C@@H](CO)C(=O)N[C@@H](CC(C)C)C(=O)N[C@@H](CC(=O)O)C(=O)N[C@H](C(=O)N1CCC[C@H]1C(=O)N[C@H](C(=O)N[C@@H](CCCCN)C(=O)N[C@@H](CC(C)C)C(=O)N[C@@H](CCCCNC(=O)COCCOCCNC(=O)COCCOCCNC(=O)CC[C@H](NC(=O)CCCCCCCCCCCCCCCCC(=O)O)C(=O)O)C(=O)N[C@@H](CCC(N)=O)C(=O)N[C@H](C(=O)N[C@@H](CC(C)C)C(=O)N[C@@H](CC(C)C)C(=O)N[C@@H](CCC(=O)O)C(=O)N[C@@H](CCC(N)=O)C(=O)N[C@@H](C)C(=O)N[C@@H](CCCCN)C(=O)N[C@@H](CCC(N)=O)C(=O)N[C@@H](CCCCN)C(=O)NC(C)(C)C(=O)N[C@@H](CC(C)C)C(=O)N[C@@H](CCCCN)C(=O)N[C@@H](C)C(=O)N[C@@H](CCC(N)=O)C(=O)N[C@@H](C)C(=O)N[C@@H](CCC(=O)O)C(=O)N[C@H](C(=O)N[C@@H](CC(N)=O)C(=O)N[C@H](C(=O)N[C@@H](CCCNC(=N)N)C(=O)N[C@H](C(=O)N[C@@H](CC(C)C)C(=O)N[C@@H](CCC(=O)O)C(=O)N[C@@H](CCCNC(=N)N)C(=O)N[C@H](C(N)=O)C(C)C)[C@@H](C)CC)C(C)C)[C@@H](C)O)[C@@H](C)CC)[C@@H](C)CC)C(C)C)C(C)C) [SEQ ID NO: 45]
6 | 6.85 |  | IVLSLD[dV]PTKLK([AEEA-AEEA-γGlu-C18 diacid])KKLLKQERKR[Aib]EREKAEKAARILERV-NH2 [SEQ ID NO: 47]
7 | 13.7 |  | IVLSLDVPIKLK([AEEA-AEEA-γGlu-C18 diacid])QILLEQAKQKKERAQAETNVRILERV-NH2 (N-terminus assumed; SMILES CC[C@H](C)[C@H](N)C(=O)N[C@H](C(=O)N[C@@H](CC(C)C)C(=O)N[C@@H](CO)C(=O)N[C@@H](CC(C)C)C(=O)N[C@@H](CC(=O)O)C(=O)N[C@H](C(=O)N1CCC[C@H]1C(=O)N[C@H](C(=O)N[C@@H](CCCCN)C(=O)N[C@@H](CC(C)C)C(=O)N[C@@H](CCCCNC(=O)COCCOCCNC(=O)COCCOCCNC(=O)CC[C@H](NC(=O)CCCCCCCCCCCCCCCCC(=O)O)C(=O)O)C(=O)N[C@@H](CCC(N)=O)C(=O)N[C@H](C(=O)N[C@@H](CC(C)C)C(=O)N[C@@H](CC(C)C)C(=O)N[C@@H](CCC(=O)O)C(=O)N[C@@H](CCC(N)=O)C(=O)N[C@@H](C)C(=O)N[C@@H](CCCCN)C(=O)N[C@@H](CCC(N)=O)C(=O)N[C@@H](CCCCN)C(=O)N[C@@H](CCCCN)C(=O)N[C@@H](CCC(=O)O)C(=O)N[C@@H](CCCNC(=N)N)C(=O)N[C@@H](C)C(=O)N[C@@H](CCC(N)=O)C(=O)N[C@@H](C)C(=O)N[C@@H](CCC(=O)O)C(=O)N[C@H](C(=O)N[C@@H](CC(N)=O)C(=O)N[C@H](C(=O)N[C@@H](CCCNC(=N)N)C(=O)N[C@H](C(=O)N[C@@H](CC(C)C)C(=O)N[C@@H](CCC(=O)O)C(=O)N[C@@H](CCCNC(=N)N)C(=O)N[C@H](C(N)=O)C(C)C)[C@@H](C)CC)C(C)C)[C@@H](C)O)[C@@H](C)CC)[C@@H](C)CC)C(C)C)C(C)C) [SEQ ID NO: 44]
